Measurements as given in the supplement of paper PMC9876800.

System: peptide library, one residue held at a place counted from the S/T acceptor
Experiment: relative phosphorylation of the sub-library (ratio to the mean residue at this position); higher = residue favoured
Details: human
Summary of the method: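 Relative sub-library phosphorylation, a ratio to the mean residue at that position, was obtained by phosphorimaging and densitometry of spots on streptavidin membranes. Before capture, purified recombinant kinases were incubated for 90 min under kinase-specific conditions with 50 μM biotinylated degenerate peptide sub-libraries and 50 μM ATP spiked with γ-32P-ATP. Each sub-library fixed one residue at one position around a central Ser/Thr.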

DCLK1, construct: aa351-689, sequence (O15075 351-689, looked up): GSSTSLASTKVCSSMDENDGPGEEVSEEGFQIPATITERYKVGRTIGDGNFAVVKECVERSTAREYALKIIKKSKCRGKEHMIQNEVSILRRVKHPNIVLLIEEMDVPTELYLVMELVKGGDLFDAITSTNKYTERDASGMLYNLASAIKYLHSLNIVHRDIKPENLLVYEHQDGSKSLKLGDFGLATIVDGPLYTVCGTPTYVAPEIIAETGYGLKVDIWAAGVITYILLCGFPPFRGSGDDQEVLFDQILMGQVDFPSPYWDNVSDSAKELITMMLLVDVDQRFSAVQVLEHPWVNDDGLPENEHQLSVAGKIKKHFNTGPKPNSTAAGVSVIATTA
AKT3, construct: aa106-end, sequence (Q9Y243 106-479, looked up): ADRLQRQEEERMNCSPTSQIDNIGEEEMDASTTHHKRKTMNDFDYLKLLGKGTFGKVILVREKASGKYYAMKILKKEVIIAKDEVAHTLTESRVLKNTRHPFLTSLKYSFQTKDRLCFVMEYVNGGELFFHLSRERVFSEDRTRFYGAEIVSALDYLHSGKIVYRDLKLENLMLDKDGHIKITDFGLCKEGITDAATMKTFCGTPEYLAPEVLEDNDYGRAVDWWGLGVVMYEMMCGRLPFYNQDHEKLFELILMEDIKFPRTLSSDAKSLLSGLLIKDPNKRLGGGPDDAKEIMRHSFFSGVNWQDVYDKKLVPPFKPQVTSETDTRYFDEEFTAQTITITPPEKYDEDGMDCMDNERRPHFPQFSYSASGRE
PAK5, construct: aa425-end, sequence (Q9P286 425-719, looked up): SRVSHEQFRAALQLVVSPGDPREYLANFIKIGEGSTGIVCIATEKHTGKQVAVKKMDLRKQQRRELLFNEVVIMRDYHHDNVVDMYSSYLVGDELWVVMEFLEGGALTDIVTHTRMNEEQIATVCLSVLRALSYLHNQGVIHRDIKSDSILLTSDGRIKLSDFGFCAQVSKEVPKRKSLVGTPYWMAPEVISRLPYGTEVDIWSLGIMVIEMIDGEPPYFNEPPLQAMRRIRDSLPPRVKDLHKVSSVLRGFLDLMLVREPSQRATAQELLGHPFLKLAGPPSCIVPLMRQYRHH
BRAF, construct: aa444-721, sequence (P15056 444-721, looked up): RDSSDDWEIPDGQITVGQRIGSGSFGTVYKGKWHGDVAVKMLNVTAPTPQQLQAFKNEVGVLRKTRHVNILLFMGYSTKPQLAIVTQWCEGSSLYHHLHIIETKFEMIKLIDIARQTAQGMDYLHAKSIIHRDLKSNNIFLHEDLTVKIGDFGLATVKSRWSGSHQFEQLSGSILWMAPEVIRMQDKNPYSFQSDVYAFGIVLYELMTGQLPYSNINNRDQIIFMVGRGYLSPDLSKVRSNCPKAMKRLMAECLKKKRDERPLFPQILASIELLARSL

AKT3, construct: aa106-end (from UniProt Q9Y243)
relative phosphorylation
Details | at +1 | at +2 | at +3 | at +4 | at -1 | at -2 | at -3 | at -4 | at -5
A fixed | 0.69 | 1.13 | 0.867 | 0.755 | 0.872 | 0.914 | 0.532 | 1.12 | 1.27
D fixed | 0.38 | 0.56 | 0.496 | 0.586 | 0.669 | 0.149 | 0.13 | 0.491 | 0.464
E fixed | 0.326 | 0.385 | 0.465 | 0.496 | 0.35 | 0.142 | 0.138 | 0.558 | 0.437
F fixed | 2.25 | 0.596 | 0.824 | 0.604 | 0.783 | 0.32 | 0.168 | 0.611 | 0.672
G fixed | 0.775 | 1.29 | 1.18 | 1.07 | 1.28 | 0.494 | 0.329 | 1.04 | 1.06
H fixed | 0.962 | 2.06 | 1.45 | 1.11 | 1.18 | 1.17 | 0.56 | 0.991 | 1.18
I fixed | 1.29 | 0.723 | 0.938 | 0.691 | 0.245 | 0.274 | 0.131 | 0.515 | 0.577
K fixed | 0.962 | 1.31 | 1.9 | 1.8 | 1.65 | 3.02 | 1.5 | 2.19 | 2.15
L fixed | 1.14 | 0.987 | 0.872 | 0.682 | 0.746 | 0.772 | 0.165 | 0.645 | 0.557
M fixed | 1.58 | 0.774 | 0.718 | 0.716 | 1.12 | 0.391 | 0.179 | 0.833 | 0.648
N fixed | 1.01 | 1.15 | 0.911 | 1.02 | 1.81 | 0.373 | 0.241 | 0.843 | 0.734
P fixed | 0.407 | 0.746 | 0.842 | 2.68 | 1.14 | 0.283 | 0.406 | 1.06 | 1.2
Q fixed | 0.895 | 0.716 | 0.981 | 0.98 | 1.03 | 0.429 | 0.502 | 1.02 | 0.797
R fixed | 1.09 | 1.82 | 1.86 | 1.54 | 1.63 | 7.37 | 11.4 | 3.08 | 2.97
V fixed | 1.23 | 1.02 | 0.711 | 0.659 | 0.402 | 0.324 | 0.147 | 0.639 | 0.692
W fixed | 0.989 | 0.917 | 1.11 | 0.911 | 0.647 | 0.253 | 0.218 | 0.638 | 0.847
Y fixed | 1.04 | 0.812 | 0.87 | 0.697 | 1.46 | 0.326 | 0.222 | 0.727 | 0.752
pThr fixed | 0.571 | 0.463 | 0.682 | 0.639 | 0.279 | 0.294 | 0.255 | 0.612 | 0.545
pTyr fixed | 0.643 | 0.656 | 0.74 | 0.517 | 0.787 | 0.263 | 0.223 | 0.537 | 0.618

BRAF, construct: aa444-721 (from UniProt P15056)
relative phosphorylation
Details | at +1 | at +2 | at +3 | at +4 | at -1 | at -2 | at -3 | at -4 | at -5
A fixed | 0.66 | 0.762 | 0.791 | 0.965 | 1.06 | 1.07 | 1.09 | 0.86 | 1.06
D fixed | 0.675 | 1.38 | 0.941 | 1.09 | 1.92 | 0.748 | 0.994 | 1.52 | 1.48
E fixed | 1.3 | 0.94 | 0.898 | 0.966 | 1.36 | 1 | 1.01 | 1.21 | 1.18
F fixed | 1.44 | 0.67 | 1.06 | 0.762 | 0.539 | 0.983 | 0.935 | 0.684 | 0.7
G fixed | 0.592 | 0.644 | 0.953 | 1.15 | 1.05 | 0.572 | 0.752 | 0.953 | 0.991
H fixed | 0.864 | 1.49 | 0.97 | 1.09 | 1.78 | 1.26 | 0.902 | 0.908 | 1.11
I fixed | 1.95 | 1.09 | 1.1 | 0.733 | 0.422 | 1.64 | 0.712 | 0.488 | 0.701
K fixed | 0.533 | 0.749 | 0.714 | 1.11 | 0.775 | 0.686 | 1.34 | 0.743 | 1.32
L fixed | 1.22 | 0.773 | 1.25 | 0.842 | 0.609 | 1.05 | 1.51 | 0.596 | 0.762
M fixed | 1.26 | 1.23 | 1.22 | 0.826 | 1.23 | 0.931 | 1.27 | 0.629 | 0.897
N fixed | 0.849 | 1.5 | 1.13 | 1.24 | 1.77 | 0.932 | 0.861 | 0.905 | 1.14
P fixed | 0.377 | 0.631 | 0.805 | 1.57 | 0.337 | 0.499 | 0.666 | 0.945 | 1.15
Q fixed | 0.956 | 1.51 | 0.995 | 1 | 1.14 | 0.892 | 0.929 | 0.765 | 0.889
R fixed | 0.673 | 0.848 | 0.902 | 1.08 | 1.17 | 0.839 | 1.46 | 0.629 | 1.06
V fixed | 1.76 | 1.2 | 0.935 | 0.661 | 0.504 | 1.55 | 0.707 | 0.546 | 0.687
W fixed | 0.769 | 0.802 | 1.44 | 1.1 | 0.589 | 1.09 | 1.13 | 3.93 | 1.01
Y fixed | 1.12 | 0.776 | 0.898 | 0.813 | 0.775 | 1.25 | 0.725 | 0.69 | 0.859
pThr fixed | 1.08 | 0.723 | 0.835 | 0.85 | 0.577 | 0.992 | 0.807 | 0.776 | 0.945
pTyr fixed | 0.912 | 0.736 | 0.945 | 0.792 | 1.13 | 1.58 | 0.734 | 0.655 | 1

PAK5, construct: aa425-end (from UniProt Q9P286)
relative phosphorylation
Details | at +1 | at +2 | at +3 | at +4 | at -1 | at -2 | at -3 | at -4 | at -5
A fixed | 0.523 | 3.81 | 0.935 | 0.868 | 0.794 | 0.298 | 0.638 | 1.06 | 1.07
D fixed | 0.142 | 0.456 | 0.657 | 0.741 | 0.332 | 0.0993 | 0.253 | 0.673 | 0.561
E fixed | 0.161 | 0.217 | 0.94 | 0.704 | 0.254 | 0.0919 | 0.269 | 0.731 | 0.544
F fixed | 1.37 | 0.928 | 1.42 | 0.877 | 1.06 | 0.519 | 0.574 | 0.881 | 0.948
G fixed | 0.353 | 0.908 | 1.17 | 1.34 | 0.645 | 0.224 | 0.814 | 1.22 | 1.14
H fixed | 0.93 | 0.94 | 1.08 | 0.987 | 1.36 | 1.1 | 1.02 | 1.16 | 1.18
I fixed | 1.82 | 0.958 | 0.944 | 0.834 | 0.538 | 0.325 | 0.439 | 0.591 | 0.78
K fixed | 0.715 | 0.343 | 0.634 | 0.97 | 1.72 | 0.815 | 3.3 | 1.53 | 1.74
L fixed | 1.48 | 0.79 | 1.19 | 0.826 | 1.22 | 0.27 | 0.432 | 0.804 | 0.794
M fixed | 1.83 | 0.681 | 1.07 | 0.876 | 1.28 | 0.347 | 0.557 | 0.932 | 0.835
N fixed | 0.402 | 0.924 | 0.702 | 1.01 | 0.942 | 0.26 | 0.744 | 0.959 | 0.986
P fixed | 0.18 | 0.846 | 1.08 | 1.74 | 0.278 | 0.576 | 0.567 | 0.867 | 0.899
Q fixed | 0.672 | 0.742 | 0.842 | 0.977 | 0.991 | 0.455 | 0.895 | 1 | 0.836
R fixed | 0.911 | 0.444 | 0.861 | 1.33 | 2.54 | 9.1 | 4.48 | 1.98 | 1.79
V fixed | 1.55 | 1.87 | 0.962 | 0.798 | 0.531 | 0.333 | 0.376 | 0.586 | 0.791
W fixed | 2.21 | 1.02 | 1.32 | 1.21 | 1.14 | 0.428 | 0.898 | 1.08 | 1.12
Y fixed | 1.74 | 1.12 | 1.21 | 0.917 | 1.38 | 1.76 | 0.745 | 0.935 | 0.987
pThr fixed | 0.367 | 0.442 | 0.647 | 0.925 | 0.214 | 0.201 | 0.373 | 0.693 | 0.735
pTyr fixed | 0.581 | 0.527 | 0.956 | 0.732 | 0.268 | 0.216 | 0.45 | 0.731 | 0.729

DCLK1, construct: aa351-689 (from UniProt O15075)
relative phosphorylation
Details | at +1 | at +2 | at +3 | at +4 | at -1 | at -2 | at -3 | at -4 | at -5
A fixed | 0.741 | 1.04 | 0.876 | 0.928 | 0.957 | 1.35 | 0.773 | 1.13 | 1.09
D fixed | 0.495 | 0.579 | 0.771 | 0.814 | 0.62 | 0.651 | 0.307 | 0.553 | 0.468
E fixed | 0.508 | 0.36 | 0.817 | 0.761 | 0.362 | 1.5 | 0.386 | 0.912 | 0.452
F fixed | 2.44 | 1.04 | 0.991 | 1.34 | 0.427 | 0.582 | 0.281 | 0.617 | 1.08
G fixed | 0.765 | 0.962 | 1.25 | 1.11 | 1.72 | 1.45 | 0.704 | 1.09 | 1.07
H fixed | 1.01 | 1.39 | 1.38 | 0.944 | 1.33 | 1.12 | 0.979 | 1.15 | 1.01
I fixed | 0.485 | 1.08 | 0.571 | 0.972 | 0.277 | 0.315 | 0.133 | 0.462 | 0.759
K fixed | 1.1 | 0.523 | 1.27 | 1.23 | 2.27 | 1.5 | 3.37 | 2.12 | 1.56
L fixed | 0.774 | 1.3 | 0.952 | 1.03 | 0.745 | 0.499 | 0.245 | 0.659 | 1.02
M fixed | 1.53 | 1.48 | 0.66 | 1.26 | 0.797 | 1.06 | 0.415 | 0.947 | 0.938
N fixed | 1.11 | 0.719 | 0.988 | 0.871 | 1.07 | 1.12 | 0.568 | 0.909 | 0.716
P fixed | 0.274 | 0.63 | 0.789 | 1.17 | 1.37 | 0.383 | 0.821 | 1.08 | 1.16
Q fixed | 1.13 | 0.626 | 1.16 | 0.925 | 0.958 | 1.75 | 0.771 | 1.04 | 0.907
R fixed | 1.22 | 0.52 | 1.46 | 1.05 | 2.01 | 1.78 | 6.04 | 1.92 | 1.68
V fixed | 0.705 | 1.23 | 0.79 | 0.889 | 0.529 | 0.464 | 0.244 | 0.665 | 0.886
W fixed | 1.34 | 1.59 | 1.32 | 0.929 | 0.528 | 0.685 | 0.475 | 0.876 | 1.36
Y fixed | 1.38 | 1.94 | 0.953 | 0.781 | 1.03 | 0.785 | 0.486 | 0.861 | 0.832
pThr fixed | 0.78 | 0.776 | 0.779 | 1.2 | 0.322 | 0.357 | 0.407 | 0.688 | 0.712
pTyr fixed | 1.01 | 2.9 | 0.913 | 0.688 | 0.585 | 0.497 | 0.391 | 0.683 | 0.813
